Paper PMC2572730, “Structural Basis for the Recognition of Histone H4 by the Histone-Chaperone RbAp46” (Structure(London, England:1993), 2008)

What was measured:
[1] = biological target: T1, RbAp46 (pRB-associated protein p46), human, recombinant (human, UniProt Q16576 1-411); test: SPR; RbAp46 crosslinked to a CM5 chip, N-terminal histone H4 peptide as analyte; 10 mM HEPES (pH 7.4), 150 mM NaCl, 0.0005% (v/v) Surfactant P20; details: both partners purified
T1 construct: RbAp46 (RBBP7), human; also called RBBP7; RbAb46; source: recombinant, expressed and purified as described previously (Verreault et al., 1998; Berger et al., 2004)

[2] = biological target: T1, RbAp46 (pRB-associated protein p46), …; test: other fluorescence titration; intrinsic tryptophan fluorescence of 45 nM RbAp46, increasing H3/H4 or H4 peptide (16-41); 50 mM Tris-HCl (pH 7.5), 200 mM NaCl, 5 mM DTT, 25°C; excitation 295 nm, emission 435 nm; single binding-site model; KD for H3/H4 called apparent; details: both partners purified

T1 sequence (Q16576 1-411): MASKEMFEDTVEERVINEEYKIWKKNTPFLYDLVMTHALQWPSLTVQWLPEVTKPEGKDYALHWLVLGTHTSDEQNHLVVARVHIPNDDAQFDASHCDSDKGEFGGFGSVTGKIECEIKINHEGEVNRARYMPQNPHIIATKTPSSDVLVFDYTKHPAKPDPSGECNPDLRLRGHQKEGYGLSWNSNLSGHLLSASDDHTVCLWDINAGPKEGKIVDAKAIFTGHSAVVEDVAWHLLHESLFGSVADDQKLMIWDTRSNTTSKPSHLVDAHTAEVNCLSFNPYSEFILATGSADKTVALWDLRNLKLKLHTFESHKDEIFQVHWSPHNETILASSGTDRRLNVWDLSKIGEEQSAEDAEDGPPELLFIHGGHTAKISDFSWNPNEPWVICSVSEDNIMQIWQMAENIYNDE

B1: synthetic histone H4 peptide (residues 16-41) (peptide)
peptide: not shown
notes: histone H4 residues 16-41; also called N-terminal histone H4 peptide; H4(16-41); source: synthetic peptide
Binder B1 has a Kd [1] of roughly 1000 nM and a Kd [2] of 1100 nM.
